Assay results: the nanobody polyreactivity screen of Harvey et al. (2022)

Test: yeast display, Sf9 membrane polyspecificity reagent, FACS + sequencing; frameworks hold sequencing errors
Procedure, shortened: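 Using colony PCR, genes from sorted yeast display clones were amplified, then sequenced on MiSeq at 2 × 250 and filtered by CDR length. The clones had been stained with 10% biotinylated, detergent-solubilized Sf9 membrane reagent for 1 hour at 4 °C and sorted by FACS into low and high (top ~1%) gates on anti-HA and streptavidin fluorescence. Polyreactivity labels come from the gate of origin.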

Sequence | polyreactivity (PSR sort gate)
QVQLVESGGGLVQAGGSLRISCAASGRTFWYYAKGWDRQAPGKEREFVAAISWSGGSTYYADSVKGRFTISRDNAKNTVYLQMNSLKPEDTAVSYCAADRYDSSQFYYWGQGTQVTVSS | low polyreactivity
QVQLVESGGGLVQAGGSLRLSCAASGSTLYGYAMGWYRQAPGNERELVAAISVSGGRTYYADSVKGRFTISRDNAKNTVYLQMNSLKPEDTAVYYCAAYGTTRMDYWGQGTQVTVSS | high polyreactivity
QVQLVESGGGLVQAGGSLRLSCAASGSSKLMLWDGIDRRLGKKGSWLPLFVLVVLRNYADSVKGRFTISRDNAKNTVFLHMNSLKPEDTAVYYCAATPIGSGGWGDYWGQGTQVTVSS | low polyreactivity
QVQLQESAGGLVQAGGSLRLRCSASGYISCDASMGWYRQAPGKERELAASITQGSSTNYADSVKGRFTIRDNAKNTVYLQMNSLKPEDTAVCYCAVTYPYWGDYTYWGQGTQVTVSS | low polyreactivity
QVQLVESGGGLVQAGGSLRLSCAASGRTFYSNAMGWYRQAPGKERELVAGINIGGGSTYYADSVKGRFTISRDNAKNTVYLQMNSLKPEDTAVYYCAARRWGAYRHGYWGQGTQVTVSS | high polyreactivity
QVQLVESGGGLVQAGGSLRLSCAASGITLNGYVMGWYRQAPGKEREFVAVISSRGGSTYYADSVKGRFTISRDNAKNTVYLQMNSLKPEDTAVYYCAARWGYSRRGYRGYDYWGQGTQVTVSS | high polyreactivity
QVQLVESGGGLVQAGGSLRLSCAASGFTFLVYAMGWYRQAPGKERELVAAISRRGCSTYYADSVKGRFTISRDNAKNTVYLQMNSLKPEDTSVYYCNKYRQQGWEFDYWGQGTQVTVSS | high polyreactivity
QVQLVESAGGLVQAGGSLRLSCAASGRIFGRYAMGWYRQAPGKERELVAAITSGTSTYYADSVKGRFTISRDNAKNTVYLQMNSLKPEDTAVYYCNADYPYYPYRENYWGQGTQVTVSS | low polyreactivity
HVQLVESGGGLVQAGGSLRLSCAASGSIFILYAMGWSRQAPGKERELLASISSSGGRTYYADSVKGRFTISRDNAKNTVYLQMNSLKPEDTAVYYCNAVGRYWSYGTIYDYWGHGTQVTVSS | high polyreactivity
QVQLVESGGGLVQAGGSLRLSCAASGRIFTTYAMGWYRQAPGKERELVATITTTDTRTYADSVKGRFTISRDNAKNTVYLQMNSLKPEDTAVYYCAKDRLNKGRYYRAASDYWGQGTQVTVSS | low polyreactivity
QVQLVESGGGLVQAGGSLRLSCAASGSIFYSNVMGWYRQAPGKERELVARITVAGSTNYADSVKGRFTISRDNAKNTVYLQMNSLKPEDTAVYYCNARLVIYTYDYWGQGTQVTVSS | low polyreactivity
QVQLVESGGGLVQAGGSLRLSCAASGITFRGYAMGWYRQAPGKERELVASITNTDSTYYADSVKGRFTISRDNAKNTVYLQMNSLKPEDTAVYYCNAEADPYSVDYDYWGQGTQVTVSS | high polyreactivity
QVQLVESGGGLVQAGGSLRLSCAASGRTFSGYAMGWYRQAPGKERELVASITYSGGSTYYADSVKGRFTISRDNAKNTVYLQMNSLKPEDTAVYYCNARSSGKGRSNAYYKGHGYWGQGTQVTVSS | high polyreactivity
QVQLVESGGGLVQAGGSLRLSCAASRNIFRYYVMGWYRPAPGKEREFVAAISYRAGSTYYADSVKGSFTISRDNAKNTVYLQMNSLKPEDTAFYYCNAERTRDFYEYDYWGQGTQVTVSS | low polyreactivity
QVQLVESGGGLVQAGGSLRLSCAASGFVWNAMGWYRPAPGTERELVAAINWRGGSTNYADSVKGRFTISRDNAKNTVYLQMNSLKPEDTAVYYCAAYFFHYHFYQAAYDYWGQGTQVTVSS | low polyreactivity
QVPLVESGGGLVQAGCSLRLSCAASGSIFTRDAMGWYRPAPGKERELVAAISAGGGTTYYADSVKGRFTNSRDNAKNTVYLLMNSLKPEDSSVFYCAKRSRSGYYADDSWGHGTQVTVSS | high polyreactivity
QVQLVESGGGLVQAGGSLRLSCAASGRIFSYYAMGWYRQAPGKERELVAAITSGGSTYYADSVKGRFTISRDNAKNTVYLQMNSLKPEDTAVYYCNVVSDFRYYYWGQGTQVTVSS | low polyreactivity
QVQLVESGGGLVQAGGSLRLSCAASGRIFPEYAMGWYRQAPGKERELVAAITSGGHYADSVKGRFTISRDNAKNTVYLQINSLKPEDTAVYYCSALNVYGSADVTTLEMDYWGQGTLVTVSS | low polyreactivity
QVQLVESGGGLVQAGGSLRLSCAASGRIFYYYVMGWYRQAPGKERELVAVIDWSGGSTYYADSVKGRFTISRDNAKNTVYLQMNSLKPEDTGVYYCAKVWLKFSLAYEDYDYLGQGTQVTVSS | low polyreactivity
QVQLVESGGGLVQAGGSLRLSCAASGSTFIGFAMGWYRQAPGKERELVAAITSDGRTNYADSVKGRFTISRDNAKNTVYLQMNSLKPEDTAVYYCAAQILGTFYEYDYWGQGTQVTVSS | low polyreactivity
QVQLVESGGGLVQAGGSLRLSCAASGSTFRRYAMGWYRQAPGKERELVAGISYSGGRTYYADSVKGRFTISRDNAKNTVYLQMNSLKPEDTAVYYCAAKSFPSVRHHENYYWGQVTQVTVSS | high polyreactivity
QVQLVESGGGLVQAGGSLRLSCAASGSIFYRNAMGWYRQAPGKERELVAAISSGTSTYYADSVKGRFTISRDNAKNTVYLQMNSLKPEDTAVYYCAKQYAFVPWWSRYHGELDYWGQGTQVTVSS | low polyreactivity
QVQLVESGGGIVQAGGSLRLSCAASGSTLDYHDMGWYRQAPGKEREFVAAIRSNDGSTYYADSVKGRFTISLDNAKNTVYLQMNSLKPEDTAVYYCNKDVWDGYDWPEFDYWGQGTQVTVSS | low polyreactivity
QVQLVESGGGLVQAGGSLRISSAASGFNSPSYAMGWYRQAPGKERELVAAISSGDSTNYADSVKGRFTISRDNAKNTVYLLMNSLKPEDTAVYYCAARYREQYDYWGQGTQVTVSS | low polyreactivity
QVQLVESGGGLVQAGGSLRLSCAASGRTFWYYTMGWYRQAPGKERELVASISRVTSTYYADSVKGRLTISRDNAKNTVYLQMNSLKPEDTAVYYCAADRTRYYVGYRWTGNKMDYWGQGSQVTVSS | low polyreactivity
QVQLVESGGGLVQAGGSLRLSCAASGRIFKYNAMGWYRQAPGKERELVAAISGRGVSTYYADSVKGRFTISRDNAKNTVYLQMNSLKPEDTAVYYCAAETVHGSADFDYWGQGTKVTVSS | low polyreactivity
QVQLVESGGGLVQAGGSLRLSCAASGRIFVYNAMGWYRQAPGKERQLVAAIRNDGSTNYADSVKGRFTISRDNAKNTVYLLMNSLKPEDTAVYYCAKSVTGWRGLWYTPRNYYWGQGTQVTVSS | high polyreactivity
QVQLVESGGGLVQAGGSLRLSCAASGRTFERYAMGWYRQAPGKERELVAAISSGGSTNYADSVKGRFTISRDNAKNTVYLQMNSLKPEDTAVYYCNVDWAVKDPSYVSQGEGDYWGQGTQVTVSS | low polyreactivity
QVQLVESGGGLDQAGGSLRLSCAASGSIYWNNAMGWYRQAPRKERELDAAISKSGTRTYYADSVKGRFTISRDNAKNTVYLQMNSLKPEDTAVYYCNALLSDSGTYAGDDYWGQGTQVTVSS | high polyreactivity
QVQLVESGGGLVQAGGSLRLSCAASGIIFWKYAMGWYRQAPGKERELVAAISSRGGSTYYADSVKGRLTISRDNAKNTVYLQMNSLKPEDTAVYYCAGEDWYYGFDYWRQGTQVTVSS | high polyreactivity
